Test results: article PMC8115599, “Mechanism of MRX inhibition by Rif2 at telomeres” (Nature Communications, 2021)

Molecular target: T1, GST-Rif2_(1-60) (S. cerevisiae, UniProt Q06208 1-60)
T1 construct: Rif2, S. cerevisiae, residues 1-60; also called GST-ScRif2_(1-60); Rif2 BAT; source: E. coli BL21 (DE3), purified (GSH Sepharose, Hitrap Heparine)
T1 sequence (looked up): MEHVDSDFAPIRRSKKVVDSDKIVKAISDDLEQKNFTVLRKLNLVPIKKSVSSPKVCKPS
Test: pull-down; GST-Rif2_(1-60), its F8A mutant or GST (10 µg) immobilised on Glutathione Sepharose 4B; Rad50∆CC (30 µg) added in 100 µL 50 mM Tris HCl pH 8, 150 mM NaCl, 1 mM DTT, 0.5 mM EDTA, 10% glycerol, 2 mM MgCl2, benzonase; 120 min at 4 °C; glutathione elution, SDS-PAGE, silver staining
Conditions: both partners purified

binding result: binds
B1: Rad50∆CC, purified (His-SUMO tag removed) (domain or fragment, S. cerevisiae)
chain: MSAIYKLSIQGIRSFDSNDRETIEFGKPLTLIVGMNGSGKTTIIECLKYATTGDLPPNSKGGVFIHDPKITGEKDIRAQVKLAFTSANGLNMIVTRNIQLLMKKTTTTFKTLEGQLVAINNSGDRSTLSTRSLELDAQVPLYLGVPKAILEYVIFCHQEDSLWPLSEPSNLKKKFDEIFQAMKFTKALDKILCYDDIDVYSKALDSAIMKYHGLKMQDINRIIDELWKRTYSGTDIDTIKIRSDEVSSTVKGKSYNYRVVMYKQDVELDMRGRCSAGQKVLASIIIRLALSETFGANCGVIALDEPTTNLDEENIESLAKSLHNIINMRRHQKNFQLIVITHDEKFLGHMNAAAFTDHFFKVKRDDRQKSQIEWVDINRVTY
notes: Rad50, S. cerevisiae, N-terminal Head domain, residues 1-189; residues joining the two Head domains in the Rad50∆CC allele; Rad50, S. cerevisiae, C-terminal Head domain, residues 1125-1312; also called Rad50 ATPase Head; Rad50 Head domains; source: E. coli BL21 (DE3), purified (NiNTA, PD10; tag cleaved with His-SUMO-Protease); not shown: His6-SUMO, N-terminal, cleaved
